Test results reported in patent US20190031760A1 (Hoffmann-La Roche, published 2019).

T1: human ASGPR H1 on ASGPR-positive hepatic cells (HepG2, primary human hepatocytes, Huh-7) (human, UniProt P07306 1-291)
T1 construct: whole, on cells; Endogenous receptor on cells; the antibodies were selected on H1; also called surface-exposed ASGPR
T1 sequence (looked up): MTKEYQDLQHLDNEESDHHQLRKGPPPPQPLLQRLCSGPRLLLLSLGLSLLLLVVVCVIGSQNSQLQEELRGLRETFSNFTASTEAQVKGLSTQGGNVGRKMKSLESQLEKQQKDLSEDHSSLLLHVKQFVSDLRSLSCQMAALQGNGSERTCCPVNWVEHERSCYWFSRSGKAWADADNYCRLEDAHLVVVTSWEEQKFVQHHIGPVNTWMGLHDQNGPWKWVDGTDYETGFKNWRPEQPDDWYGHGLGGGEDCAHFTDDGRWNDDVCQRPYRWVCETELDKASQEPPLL

B1: 51A12 A82G S116A Fab (Fab, V domains shown)
VH: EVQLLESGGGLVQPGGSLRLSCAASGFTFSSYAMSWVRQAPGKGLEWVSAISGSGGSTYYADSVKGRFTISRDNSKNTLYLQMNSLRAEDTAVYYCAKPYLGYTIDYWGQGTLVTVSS
VL: SSELTQDPAVSVALGQTVRITCQGDSLRSYYASWYQQKPGQAPVLVIYGKNNRPSGIPDRFSGSSSGNTASLTITGAQAEDEADYYCNSRDICCNRAVRNFGGGTKLTVLG
notes: Light chain variant of 51A12 with the parental heavy chain; To be rechecked
B2: 51A12_E7 Fab (Fab, V domains shown)
VH: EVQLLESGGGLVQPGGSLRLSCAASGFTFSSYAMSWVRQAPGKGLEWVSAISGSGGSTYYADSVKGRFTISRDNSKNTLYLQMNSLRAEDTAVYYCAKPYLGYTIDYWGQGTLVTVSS
VL: SSELTQDPAVSVALGQTVRITCQGDSLRSYYASWYQQKPGQAPVLVIYGKNNRPSGIPDRFSGSSSGNTASLTITGAQAEDEADYYCNSRDYRYNRAVRPFGGGTKLTVL
notes: Fab
B3: 51A12 Fab (Fab, V domains shown)
VH: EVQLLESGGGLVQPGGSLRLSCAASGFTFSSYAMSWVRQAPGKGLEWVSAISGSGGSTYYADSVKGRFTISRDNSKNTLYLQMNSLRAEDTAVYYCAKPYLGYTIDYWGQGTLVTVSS
VL: SSELTQDPAVSVALGQTVRITCQGDSLRSYYASWYQQKPGQAPVLVIYGKNNRPSGIPDRFSASSSGNTASLTITGAQAEDEADYYCNSRDICCNRSVRNFGGGTKLTVL
notes: Human lambda Fab from E. coli, purified by IMAC; also called clone 51A12; parental clone 51A12
B4: 51A12_H3 Fab (Fab, V domains shown)
VH: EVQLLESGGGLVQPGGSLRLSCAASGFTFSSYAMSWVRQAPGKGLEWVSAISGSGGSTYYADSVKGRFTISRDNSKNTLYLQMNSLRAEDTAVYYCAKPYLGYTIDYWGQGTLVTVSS
VL: SSELTQDPAVSVALGQTVRITCQGDSLRSYYASWYQQKPGQAPVLVIYGKNNRPSGIPDRFSGSSSGNTASLTITGAQAEDEADYYCNSRDYKFNRVVRNFGGGTKLTVL
notes: Fab
B5: 51A12_A6 Fab (Fab, V domains shown)
VH: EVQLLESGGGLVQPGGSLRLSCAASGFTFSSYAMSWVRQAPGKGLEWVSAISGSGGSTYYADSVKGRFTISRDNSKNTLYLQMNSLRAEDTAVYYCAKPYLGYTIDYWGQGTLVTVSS
VL: SSELTQDPAVSVALGQTVRITCQGDSLRSYYASWYQQKPGQAPVLVIYGKNNRPSGIPDRFSGSSSGNTASLTITGAQAEDEADYYCNSRTYSYNRAVRNFGGGTKLTVL
notes: Fab; also called Variant 51A12_A6
B6: 51A12_D1 Fab (Fab, V domains shown)
VH: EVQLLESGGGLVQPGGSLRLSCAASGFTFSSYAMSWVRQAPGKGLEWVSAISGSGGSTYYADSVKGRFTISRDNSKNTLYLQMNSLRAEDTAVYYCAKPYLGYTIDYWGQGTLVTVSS
VL: SSELTQDPAVSVALGQTVRITCQGDSLRSYYASWYQQKPGQAPVLVIYGKNNRPSGIPDRFSGSSSGNTASLTITGAQAEDEADYYCNSRTYSYNRAVRPFGGGTKLTVL
notes: Fab
B7: 51A12 S116A Fab (Fab, V domains shown)
VH: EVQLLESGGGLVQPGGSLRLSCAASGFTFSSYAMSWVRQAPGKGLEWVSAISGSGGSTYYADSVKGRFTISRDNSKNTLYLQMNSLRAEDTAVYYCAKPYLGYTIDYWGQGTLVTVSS
VL: SSELTQDPAVSVALGQTVRITCQGDSLRSYYASWYQQKPGQAPVLVIYGKNNRPSGIPDRFSASSSGNTASLTITGAQAEDEADYYCNSRDICCNRAVRNFGGGTKLTVL
notes: Fab
B8: 51A12_H6 Fab (Fab, V domains shown)
VH: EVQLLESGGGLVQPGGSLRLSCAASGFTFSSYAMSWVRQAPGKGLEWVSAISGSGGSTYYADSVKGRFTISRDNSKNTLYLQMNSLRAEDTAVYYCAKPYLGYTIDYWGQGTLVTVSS
VL: SSELTQDPAVSVALGQTVRITCQGDSLRSYYASWYQQKPGQAPVLVIYGKNNRPSGIPDRFSGSSSGNTASLTITGAQAEDEADYYCNSRDYKWNRVVRHFGGGTKLTVL
notes: Fab
B9: 51A12_C1 Fab (Fab, V domains shown)
VH: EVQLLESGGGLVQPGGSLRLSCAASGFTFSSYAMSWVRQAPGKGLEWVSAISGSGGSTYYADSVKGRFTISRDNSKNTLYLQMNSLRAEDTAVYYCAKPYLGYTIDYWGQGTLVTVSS
VL: SSELTQDPAVSVALGQTVRITCQGDSLRSYYASWYQQKPGQAPVLVIYGKNNRPSGIPDRFSGSSSGNTASLTITGAQAEDEADYYCNSRSYAFNRVVRNFGGGTKLTVL
notes: Fab
B10: 51A12_C7 Fab (Fab, V domains shown)
VH: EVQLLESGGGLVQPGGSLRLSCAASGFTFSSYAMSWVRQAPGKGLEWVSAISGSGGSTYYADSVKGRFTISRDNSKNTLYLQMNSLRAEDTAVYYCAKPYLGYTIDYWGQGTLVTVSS
VL: SSELTQDPAVSVALGQTVRITCQGDSLRSYYASWYQQKPGQAPVLVIYGKNNRPSGIPDRFSGSSSGNTASLTITGAQAEDEADYYCNSRDIRYNRVVRPFGGGTKLTVL
notes: Fab

Legend:
[1] = molecular target: T2, avi-Fc-human ASGPR H1 CRD (human, UniProt P0DOX5 223-449 = IgG part, biotinylated at the N-terminal Avi tag); assay: SPR (ProteOn XPR36), antigen captured by neutravidin, Fab as analyte
T2 construct: also called Fc-CRD; hu/cyASGPR H1 CRD

[2] = molecular target: T1, human ASGPR H1 on ASGPR-positive …; assay: FACS on HepG2 cells, purified Fab at 1.1, 3.3 and 10 µg/ml, 30 min at 4°C, FITC anti-human F(ab')2 secondary
[3] = molecular target: T2, avi-Fc-human ASGPR H1 CRD; assay: SPR (ProteOn XPR36), antigen captured by neutravidin, Fab as analyte; remark: listed apart in the source
[4] = molecular target: T2, avi-Fc-human ASGPR H1 CRD; assay: SPR (ProteOn XPR36), antigen captured by neutravidin, antibody construct as analyte

Binder	Kd [1]	koff [1]	kon [1]	binding result [2]	Kd [3]	koff [3]	kon [3]	Kd [4]	koff [4]	kon [4]
B1	1.25 nM	0.00016 s⁻¹	127000 M⁻¹ s⁻¹	–	–	–	–	–	–	–
B2	0.448 nM	9.64e-05 s⁻¹	215000 M⁻¹ s⁻¹	binds	–	–	–	–	–	–
B3	0.57 nM	6.28e-05 s⁻¹	110000 M⁻¹ s⁻¹	–	0.57 nM	6.28e-05 s⁻¹	110000 M⁻¹ s⁻¹	0.571 nM	6.28e-05 s⁻¹	110000 M⁻¹ s⁻¹
B4	0.51 nM	8.3e-05 s⁻¹	163000 M⁻¹ s⁻¹	binds	–	–	–	–	–	–
B5	0.0801 nM	2.61e-05 s⁻¹	326000 M⁻¹ s⁻¹	binds	–	–	–	–	–	–
B6	0.221 nM	8.85e-05 s⁻¹	400000 M⁻¹ s⁻¹	binds	–	–	–	–	–	–
B7	1.43 nM	0.000178 s⁻¹	131000 M⁻¹ s⁻¹	binds	–	–	–	–	–	–
B8	0.325 nM	2.79e-05 s⁻¹	86000 M⁻¹ s⁻¹	binds	–	–	–	–	–	–
B9	0.241 nM	4.19e-05 s⁻¹	174000 M⁻¹ s⁻¹	binds	–	–	–	–	–	–
B10	0.235 nM	4.67e-05 s⁻¹	199000 M⁻¹ s⁻¹	binds	–	–	–	–	–	–
